In patent publication US20200024322A1 (Eli Lilly, published 2020):
Changes are numbered by the printed parent chain. Numbered stars: 1 amine (or outer) side, 2 acyl side, 3 side chain; on linkers, the order of the positions; unused ones are H or OH. Square brackets hold non-standard residues; d marks the D form. Side chains are listed from the residue outwards. Ends that are not written are not given here. * marks the point of attachment. C20 diacid = O=C(O)CCCCCCCCCCCCCCCCCCC(=O)*; γGlu = O=C(O)[C@H](CCC(=O)[*:2])N[*:1]; AEEA = NCCOCCOCC(=O)O; Aib = CC(C)(N)C(=O)O

T1: human GIP receptor (human, UniProt P48546 22-466)
T1 construct: whole, on cells; Used as crude membranes of stably transfected CHO cells; also called hGIPR
T1 sequence (looked up): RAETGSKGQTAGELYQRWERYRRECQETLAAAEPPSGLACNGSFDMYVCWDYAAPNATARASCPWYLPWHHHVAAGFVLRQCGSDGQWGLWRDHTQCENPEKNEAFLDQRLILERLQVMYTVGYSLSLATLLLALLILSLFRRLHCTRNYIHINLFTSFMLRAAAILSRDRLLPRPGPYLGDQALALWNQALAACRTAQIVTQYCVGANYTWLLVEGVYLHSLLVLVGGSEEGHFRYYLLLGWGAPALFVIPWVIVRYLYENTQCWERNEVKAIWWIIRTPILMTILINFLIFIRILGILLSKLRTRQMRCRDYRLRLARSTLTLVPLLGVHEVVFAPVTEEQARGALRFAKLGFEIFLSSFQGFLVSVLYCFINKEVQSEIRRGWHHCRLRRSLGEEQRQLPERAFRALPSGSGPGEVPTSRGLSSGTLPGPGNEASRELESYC

B1: Example 88 (peptide)
peptide: YPEGTFTSDYSILLDKK([AEEA-AEEA-γGlu-C20 diacid])AQ[Aib]AFIEYLIEGGPSSGAPPPS-NH2
modifications: N-terminus assumed
SMILES: CC[C@H](C)[C@H](NC(=O)[C@H](CC(C)C)NC(=O)[C@H](Cc1ccc(O)cc1)NC(=O)[C@H](CCC(=O)O)NC(=O)[C@@H](NC(=O)[C@H](Cc1ccccc1)NC(=O)[C@H](C)NC(=O)C(C)(C)NC(=O)[C@H](CCC(N)=O)NC(=O)[C@H](C)NC(=O)[C@H](CCCCNC(=O)COCCOCCNC(=O)COCCOCCNC(=O)CC[C@H](NC(=O)CCCCCCCCCCCCCCCCCCC(=O)O)C(=O)O)NC(=O)[C@H](CCCCN)NC(=O)[C@H](CC(=O)O)NC(=O)[C@H](CC(C)C)NC(=O)[C@H](CC(C)C)NC(=O)[C@@H](NC(=O)[C@H](CO)NC(=O)[C@H](Cc1ccc(O)cc1)NC(=O)[C@H](CC(=O)O)NC(=O)[C@H](CO)NC(=O)[C@@H](NC(=O)[C@H](Cc1ccccc1)NC(=O)[C@@H](NC(=O)CNC(=O)[C@H](CCC(=O)O)NC(=O)[C@@H]1CCCN1C(=O)[C@@H](N)Cc1ccc(O)cc1)[C@@H](C)O)[C@@H](C)O)[C@@H](C)CC)[C@@H](C)CC)C(=O)N[C@@H](CCC(=O)O)C(=O)NCC(=O)NCC(=O)N1CCC[C@H]1C(=O)N[C@@H](CO)C(=O)N[C@@H](CO)C(=O)NCC(=O)N[C@@H](C)C(=O)N1CCC[C@H]1C(=O)N1CCC[C@H]1C(=O)N1CCC[C@H]1C(=O)N[C@@H](CO)C(N)=O
B2: Example 67 (peptide)
peptide: YXEGTFTSDYSILLDKKAQXAXIEYLIEGGPSSGAPPPS
modifications: Aib2; K17((2-[2-(2-Amino-ethoxy)-ethoxy]-acetyl)2-(γ-Glu)-CO-(CH2)18-CO2H); Aib20; αMeF22; C-terminal NH2
B3: Example 78 (peptide)
peptide: B2 peptide with Y1X, X22F
modifications: D-Tyr1; Aib2; K17((2-[2-(2-Amino-ethoxy)-ethoxy]-acetyl)2-(γ-Glu)-CO-(CH2)18-CO2H); Aib20; C-terminal NH2
B4: Example 115 (peptide)
peptide: B2 peptide with F6X, L13X, K16E, X22F
modifications: Aib2; αMeF6; αMeL13; K17((2-[2-(2-Amino-ethoxy)-ethoxy]-acetyl)2-(γ-Glu)-CO-(CH2)18-CO2H); Aib20; C-terminal NH2
B5: Example 74 (peptide)
peptide: B2 peptide with L13X
modifications: Aib2; αMeL13; K17((2-[2-(2-Amino-ethoxy)-ethoxy]-acetyl)2-(γ-Glu)-CO-(CH2)18-CO2H); Aib20; αMeF22; C-terminal NH2
B6: Example 91 (peptide)
peptide: B2 peptide with E3X, X22F
modifications: Aib2; γ-Glu3; K17((2-[2-(2-Amino-ethoxy)-ethoxy]-acetyl)2-(γ-Glu)-CO-(CH2)18-CO2H); Aib20; C-terminal NH2
B7: Example 68 (peptide)
peptide: B2 peptide with S11X, X22F
modifications: Aib2; αMeS11; K17((2-[2-(2-Amino-ethoxy)-ethoxy]-acetyl)2-(γ-Glu)-CO-(CH2)18-CO2H); Aib20; C-terminal NH2
B8: Example 89 (peptide)
peptide: B2 peptide with E3X, X22F
modifications: Aib2; Aad3; K17((2-[2-(2-Amino-ethoxy)-ethoxy]-acetyl)2-(γ-Glu)-CO-(CH2)18-CO2H); Aib20; C-terminal NH2
B9: Example 79 (peptide)
peptide: B2 peptide with Y1X, X2A, X22F
modifications: N-terminal Ac; D-Tyr1; K17((2-[2-(2-Amino-ethoxy)-ethoxy]-acetyl)2-(γ-Glu)-CO-(CH2)18-CO2H); Aib20; C-terminal NH2
B10: Example 76 (peptide)
peptide: B2 peptide with F6X, L13X
modifications: Aib2; αMeF6 (printed aMeF); αMeL13; K17((2-[2-(2-Amino-ethoxy)-ethoxy]-acetyl)2-(γ-Glu)-CO-(CH2)18-CO2H); Aib20; αMeF22; C-terminal NH2
B11: Example 75 (peptide)
peptide: B2 peptide with L13X, X22F, L26X
modifications: Aib2; αMeL13; K17((2-[2-(2-Amino-ethoxy)-ethoxy]-acetyl)2-(γ-Glu)-CO-(CH2)18-CO2H); Aib20; αMeL26; C-terminal NH2
B12: Example 81 (peptide)
peptide: B2 peptide with S11X, X22F
modifications: Aib2; D-Ser11; K17((2-[2-(2-Amino-ethoxy)-ethoxy]-acetyl)2-(γ-Glu)-CO-(CH2)18-CO2H); Aib20; C-terminal NH2
B13: Example 83 (peptide)
peptide: B2 peptide with X22F, E28X
modifications: Aib2; K17((2-[2-(2-Amino-ethoxy)-ethoxy]-acetyl)2-(γ-Glu)-CO-(CH2)18-CO2H); Aib20; D-Glu28; C-terminal NH2
B14: Example 126 (peptide)
peptide: B2 peptide with F6X, L13X, X22F, G29A
modifications: Aib2; αMeF6; αMeL13; K17((2-[2-(2-Amino-ethoxy)-ethoxy]-acetyl)2-(γ-Glu)-CO-(CH2)18-CO2H); Aib20; C-terminal NH2
B15: Example 69 (peptide)
peptide: B2 peptide with F6X, L13X, X22F
modifications: Aib2; αMeF6; αMeL13; K17((2-[2-(2-Amino-ethoxy)-ethoxy]-acetyl)2-(γ-Glu)-CO-(CH2)18-CO2H); Aib20; C-terminal NH2

Molecular target: T1, human GIP receptor
Test: SPA, [125I]-GIP displacement, hGIPR membranes

Binder	Ki
B1	0.0717 nM
B2	0.061 nM
B3	0.163 nM
B4	0.0302 nM
B5	0.0279 nM
B6	1.8 nM
B7	0.0243 nM
B8	0.045 nM
B9	0.0313 nM
B10	0.0659 nM
B11	0.103 nM
B12	0.198 nM
B13	0.142 nM
B14	0.0644 nM
B15	0.03 nM

Molecular target: T2, human glucagon receptor (human, UniProt P47871 26-477)
T2 construct: whole, on cells; Used as crude membranes of stably transfected HEK293 cells; also called hGcgR; hGLcgR
T2 sequence (P47871 26-477): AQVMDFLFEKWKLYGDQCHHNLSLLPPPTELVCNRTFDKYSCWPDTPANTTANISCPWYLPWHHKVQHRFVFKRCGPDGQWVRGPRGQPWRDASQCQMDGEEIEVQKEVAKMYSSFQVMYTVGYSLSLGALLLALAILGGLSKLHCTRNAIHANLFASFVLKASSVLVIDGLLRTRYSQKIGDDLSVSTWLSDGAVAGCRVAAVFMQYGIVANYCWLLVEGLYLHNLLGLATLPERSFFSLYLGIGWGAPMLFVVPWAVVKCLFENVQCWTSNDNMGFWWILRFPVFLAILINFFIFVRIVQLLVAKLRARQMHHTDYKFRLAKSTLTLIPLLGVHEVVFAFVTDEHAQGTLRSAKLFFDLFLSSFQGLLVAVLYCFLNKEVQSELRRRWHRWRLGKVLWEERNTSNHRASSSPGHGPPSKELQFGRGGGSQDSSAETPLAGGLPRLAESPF
Test: SPA, [125I]-Gcg displacement, hGcgR membranes

Binder	Ki
B1	545 nM
B2	270 nM
B3	215 nM
B4	9.89 nM
B5	69.8 nM
B6	540 nM
B7	99.2 nM
B8	324 nM
B9	429 nM
B10	14.4 nM
B11	283 nM
B12	344 nM
B13	320 nM
B14	101 nM
B15	22.1 nM

Molecular target: T3, human GLP-1 receptor (human, UniProt P43220 24-463)
T3 construct: whole, on cells; Used as crude membranes of stably transfected HEK293 cells; also called hGLP1R; hGLP-1R
Test: SPA, [125I]-GLP-1 displacement, hGLP-1R membranes

Binder	Ki
B1	4.24 nM
B2	10.2 nM
B3	3.94 nM
B4	3.43 nM
B5	5.99 nM
B6	5.23 nM
B7	1.58 nM
B8	2.64 nM
B9	2.69 nM
B10	2.64 nM
B11	24.4 nM
B12	2.88 nM
B13	7.1 nM
B14	1.46 nM
B15	1.22 nM
